In patent publication US20250197490A1 (HBM ALPHA THERAPEUTICS, published 2025):
Where “and” joins values, the source holds several entries; their conditions need not be identical. Identical values can stand only once.

T1: corticotropin-releasing hormone (CRH) peptide (human and mouse, UniProt P01143 145-185 (rat entry), not fully specified)
T1 peptide: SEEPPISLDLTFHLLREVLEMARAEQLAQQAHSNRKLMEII

B1: PR302341 (antibody, human IgG1, kappa, V domains shown)
VH: EVQLQQSGPELVKPGASVKMSCKASGYTFTDYFMKWVKQSHGESLEWIGVINPNNGDIFYNQKFKGKATLTVDKSSSTAFMQLNSLTSEDSAVYSCARGTDRALFAYWGQGTLVAVSA
VL: DVLMTQTPLSLPVSLGDQASISCRSGQSIVHSDGNTYLEWYLQRPGQSPRLLIYKVSNRFSGVPDRFSGSGSGTDFTLKISRVGAEDLGIYYCFQGSHIPWTFGGGTKLEVKR
B2: PR302341-13 (antibody, human IgG1, kappa, V domains shown)
VH: QVQLVQSGAEVKKPGASVKVSCKASGYTFTDYFMKWVRQAPGQGLEWMGVINPNNGDIFYNQKFKGRVTMTRDTSTSTVYMELSSLRSEDTAVYYCARGTDRALFAYWGQGTLVTVSS
VL: DVLMTQTPLSLPVSLGDQASISCRSGQSIVHSDGNTYLEWYLQRPGQSPRLLIYKVSNRFSGVPDRFSGSGSGTDFTLKISRVGAEDLGIYYCFQGSHIPWTFGGGTKLEVKR
B3: PR302341-8 (antibody, human IgG1, kappa, V domains shown)
VH: QVQLVQSGAEVKKPGASVKVSCKASGYTFTDYFMKWVRQAPGQGLEWMGVINPNNGDIFYNQKFKGRVTMTVDKSTSTAYMELSSLRSEDTAVYYCARGTDRALFAYWGQGTLVTVSS
VL: DVVMTQSPLSLPVTLGQPASISCRSGQSIVHSDGNTYLEWYQQRPGQSPRLLIYKVSNRFSGVPDRFSGSGSGTDFTLKISRVEAEDLGVYYCFQGSHIPWTFGGGTKVEIKR
B4: PR302341-6 (antibody, human IgG1, kappa, V domains shown)
VH: EVQLQQSGPELVKPGASVKMSCKASGYTFTDYFMKWVKQSHGESLEWIGVINPNNGDIFYNQKFKGKATLTVDKSSSTAFMQLNSLTSEDSAVYSCARGTDRALFAYWGQGTLVAVSA
VL: DVVMTQTPLSLSVTPGQPASISCRSGQSIVHSDGNTYLEWYLQKPGQSPQLLIYKVSNRFSGVPDRFSGSGSGTDFTLKISRVEAEDLGVYYCFQGSHIPWTFGGGTKVEIKR
B5: PR302341-3 (antibody, human IgG1, kappa, V domains shown)
VH: EVQLQQSGPELVKPGASVKMSCKASGYTFTDYFMKWVKQSHGESLEWIGVINPNNGDIFYNQKFKGKATLTVDKSSSTAFMQLNSLTSEDSAVYSCARGTDRALFAYWGQGTLVAVSA
VL: DIVMTQTPLSSPVTLGQPASISCRSGQSIVHSDGNTYLEWLQQRPGQPPRLLIYKVSNRFSGVPDRFSGSGAGTDFTLKISRVEAEDVGVYYCFQGSHIPWTFGGGTKVEIKR
B6: PR302341-19 (antibody, human IgG1, kappa, V domains shown)
VH: QVQLVQSGAEVKKPGASVKVSCKASGYTFTDYFMKWVRQAPGQGLEWMGVINPNNGDIFYNQKFKGRVTMTRDTSTSTVYMELSSLRSEDTAVYYCARGTDRALFAYWGQGTLVTVSS
VL: DVVMTQSPLSLPVTLGQPASISCRSGQSIVHSDGNTYLEWYQQRPGQSPRLLIYKVSNRFSGVPDRFSGSGSGTDFTLKISRVEAEDLGVYYCFQGSHIPWTFGGGTKVEIKR
B7: PR302341-16 (antibody, human IgG1, kappa, V domains shown)
VH: QVQLVQSGAEVKKPGASVKVSCKASGYTFTDYFMKWVRQAPGQRLEWMGVINPNNGDIFYNQKFKGRVTITVDKSASTAYMELSSLRSEDTAVYYCARGTDRALFAYWGQGTLVTVSS
VL: DVLMTQTPLSLPVSLGDQASISCRSGQSIVHSDGNTYLEWYLQRPGQSPRLLIYKVSNRFSGVPDRFSGSGSGTDFTLKISRVGAEDLGIYYCFQGSHIPWTFGGGTKLEVKR
B8: PR302341-1 (antibody, human IgG1, kappa, V domains shown)
VH: EVQLQQSGPELVKPGASVKMSCKASGYTFTDYFMKWVKQSHGESLEWIGVINPNNGDIFYNQKFKGKATLTVDKSSSTAFMQLNSLTSEDSAVYSCARGTDRALFAYWGQGTLVAVSA
VL: DVVMTQSPLSLPVTLGQPASISCRSGQSIVHSDGNTYLEWFQQRPGQSPRRLIYKVSNRFSGVPDRFSGSGSGTDFTLKISRVEAEDVGVYYCFQGSHIPWTFGGGTKVEIKR
B9: PR302341-14 (antibody, human IgG1, kappa, V domains shown)
VH: QVQLVQSGAEVKKPGASVKVSCKASGYTFTDYFMKWVRQAPGQGLEWMGVINPNNGDIFYNQKFKGRVTMTVDKSTSTAYMELSSLRSEDTAVYYCARGTDRALFAYWGQGTLVTVSS
VL: DVLMTQTPLSLPVSLGDQASISCRSGQSIVHSDGNTYLEWYLQRPGQSPRLLIYKVSNRFSGVPDRFSGSGSGTDFTLKISRVGAEDLGIYYCFQGSHIPWTFGGGTKLEVKR
B10: PR302341-20 (antibody, human IgG1, kappa, V domains shown)
VH: QVQLVQSGAEVKKPGASVKVSCKASGYTFTDYFMKWVRQAPGQRLEWMGVINPNNGDIFYNQKFKGRVTITRDTSASTAYMELSSLRSEDTAVYYCARGTDRALFAYWGQGTLVTVSS
VL: DVVMTQSPLSLPVTLGQPASISCRSGQSIVHSDGNTYLEWYQQRPGQSPRLLIYKVSNRFSGVPDRFSGSGSGTDFTLKISRVEAEDLGVYYCFQGSHIPWTFGGGTKVEIKR
B11: PR302341-4 (antibody, human IgG1, kappa, V domains shown)
VH: EVQLQQSGPELVKPGASVKMSCKASGYTFTDYFMKWVKQSHGESLEWIGVINPNNGDIFYNQKFKGKATLTVDKSSSTAFMQLNSLTSEDSAVYSCARGTDRALFAYWGQGTLVAVSA
VL: DVVMTQTPLSSPVTLGQPASISCRSGQSIVHSDGNTYLEWYQQRPGQPPRLLIYKVSNRFSGVPDRFSGSGAGTDFTLKISRVEAEDLGVYYCFQGSHIPWTFGGGTKVEIKR
B12: PR302341-2 (antibody, human IgG1, kappa, V domains shown)
VH: EVQLQQSGPELVKPGASVKMSCKASGYTFTDYFMKWVKQSHGESLEWIGVINPNNGDIFYNQKFKGKATLTVDKSSSTAFMQLNSLTSEDSAVYSCARGTDRALFAYWGQGTLVAVSA
VL: DVVMTQSPLSLPVTLGQPASISCRSGQSIVHSDGNTYLEWYQQRPGQSPRLLIYKVSNRFSGVPDRFSGSGSGTDFTLKISRVEAEDLGVYYCFQGSHIPWTFGGGTKVEIKR
B13: PR302341-15 (antibody, human IgG1, kappa, V domains shown)
VH: QVQLVQSGAEVKKPGASVKVSCKASGYTFTDYFMKWVRQAPGQRLEWMGVINPNNGDIFYNQKFKGRVTITRDTSASTAYMELSSLRSEDTAVYYCARGTDRALFAYWGQGTLVTVSS
VL: DVLMTQTPLSLPVSLGDQASISCRSGQSIVHSDGNTYLEWYLQRPGQSPRLLIYKVSNRFSGVPDRFSGSGSGTDFTLKISRVGAEDLGIYYCFQGSHIPWTFGGGTKLEVKR
B14: PR302341-21 (antibody, human IgG1, kappa, V domains shown)
VH: QVQLVQSGAEVKKPGASVKVSCKASGYTFTDYFMKWVRQAPGQRLEWMGVINPNNGDIFYNQKFKGRVTITVDKSASTAYMELSSLRSEDTAVYYCARGTDRALFAYWGQGTLVTVSS
VL: DVVMTQSPLSLPVTLGQPASISCRSGQSIVHSDGNTYLEWYQQRPGQSPRLLIYKVSNRFSGVPDRFSGSGSGTDFTLKISRVEAEDLGVYYCFQGSHIPWTFGGGTKVEIKR
B15: PR302341-5 (antibody, human IgG1, kappa, V domains shown)
VH: EVQLQQSGPELVKPGASVKMSCKASGYTFTDYFMKWVKQSHGESLEWIGVINPNNGDIFYNQKFKGKATLTVDKSSSTAFMQLNSLTSEDSAVYSCARGTDRALFAYWGQGTLVAVSA
VL: DIVMTQTPLSLSVTPGQPASISCRSGQSIVHSDGNTYLEWYLQKPGQSPQLLIYKVSNRFSGVPDRFSGSGSGTDFTLKISRVEAEDVGVYYCFQGSHIPWTFGGGTKVEIKR
B16: PR302341-7 (antibody, human IgG1, kappa, V domains shown)
VH: QVQLVQSGAEVKKPGASVKVSCKASGYTFTDYFMKWVRQAPGQGLEWMGVINPNNGDIFYNQKFKGRVTMTVDKSTSTAYMELSSLRSEDTAVYYCARGTDRALFAYWGQGTLVTVSS
VL: DVVMTQSPLSLPVTLGQPASISCRSGQSIVHSDGNTYLEWFQQRPGQSPRRLIYKVSNRFSGVPDRFSGSGSGTDFTLKISRVEAEDVGVYYCFQGSHIPWTFGGGTKVEIKR
B17: PR302341-12 (antibody, human IgG1, kappa, V domains shown)
VH: QVQLVQSGAEVKKPGASVKVSCKASGYTFTDYFMKWVRQAPGQGLEWMGVINPNNGDIFYNQKFKGRVTMTVDKSTSTAYMELSSLRSEDTAVYYCARGTDRALFAYWGQGTLVTVSS
VL: DVVMTQTPLSLSVTPGQPASISCRSGQSIVHSDGNTYLEWYLQKPGQSPQLLIYKVSNRFSGVPDRFSGSGSGTDFTLKISRVEAEDLGVYYCFQGSHIPWTFGGGTKVEIKR
B18: PR302341-24 (antibody, human IgG1, kappa, V domains shown)
VH: QVQLVQSGAEVKKPGASVKVSCKASGYTFTDYFMKWVRQAPGQRLEWMGVINPNNGDIFYNQKFKGRVTITVDKSASTAYMELSSLRSEDTAVYYCARGTDRALFAYWGQGTLVTVSS
VL: DVVMTQTPLSSPVTLGQPASISCRSGQSIVHSDGNTYLEWYQQRPGQPPRLLIYKVSNRFSGVPDRFSGSGAGTDFTLKISRVEAEDLGVYYCFQGSHIPWTFGGGTKVEIKR
B19: PR302341-11 (antibody, human IgG1, kappa, V domains shown)
VH: QVQLVQSGAEVKKPGASVKVSCKASGYTFTDYFMKWVRQAPGQGLEWMGVINPNNGDIFYNQKFKGRVTMTVDKSTSTAYMELSSLRSEDTAVYYCARGTDRALFAYWGQGTLVTVSS
VL: DIVMTQTPLSLSVTPGQPASISCRSGQSIVHSDGNTYLEWYLQKPGQSPQLLIYKVSNRFSGVPDRFSGSGSGTDFTLKISRVEAEDVGVYYCFQGSHIPWTFGGGTKVEIKR
B20: PR302341-9 (antibody, human IgG1, kappa, V domains shown)
VH: QVQLVQSGAEVKKPGASVKVSCKASGYTFTDYFMKWVRQAPGQGLEWMGVINPNNGDIFYNQKFKGRVTMTVDKSTSTAYMELSSLRSEDTAVYYCARGTDRALFAYWGQGTLVTVSS
VL: DIVMTQTPLSSPVTLGQPASISCRSGQSIVHSDGNTYLEWLQQRPGQPPRLLIYKVSNRFSGVPDRFSGSGAGTDFTLKISRVEAEDVGVYYCFQGSHIPWTFGGGTKVEIKR
B21: PR302341-10 (antibody, human IgG1, kappa, V domains shown)
VH: QVQLVQSGAEVKKPGASVKVSCKASGYTFTDYFMKWVRQAPGQGLEWMGVINPNNGDIFYNQKFKGRVTMTVDKSTSTAYMELSSLRSEDTAVYYCARGTDRALFAYWGQGTLVTVSS
VL: DVVMTQTPLSSPVTLGQPASISCRSGQSIVHSDGNTYLEWYQQRPGQPPRLLIYKVSNRFSGVPDRFSGSGAGTDFTLKISRVEAEDLGVYYCFQGSHIPWTFGGGTKVEIKR

Molecular target: T1, corticotropin-releasing hormone (CRH) …
Assay: cell-based or functional assay

With B1 the “hCRHR1-Luc 0.5 nM CRH IC50” value was 139 pM and 231 pM.

B2 and B3 are within 1.5-fold of each other in “hCRHR1-Luc 0.5 nM CRH IC50” value: 124 pM for the first, 165 pM for the second.

Going from B4 to B5, the “hCRHR1-Luc 0.5 nM CRH IC50” value falls from 363 pM to 128 pM (2.8-fold).

First: B6
Second: B7
The “hCRHR1-Luc 0.5 nM CRH IC50” value of the first is 1.9-fold lower: 121 pM for the first, 225 pM for the second.

Compared with B8, B9 is 5.3-fold lower in “hCRHR1-Luc 0.5 nM CRH IC50” value: 397 pM for the first, 75 pM for the second.

First: B10
Second: B11
The “hCRHR1-Luc 0.5 nM CRH IC50” value of the first is 1.5-fold higher: 162 pM for the first, 107 pM for the second.

B12 and B13 are within 1.5-fold of each other in “hCRHR1-Luc 0.5 nM CRH IC50” value: 168 pM for the first, 124 pM for the second.

Going from B14 to B15, the “hCRHR1-Luc 0.5 nM CRH IC50” value rises from 177 pM to 730 pM (4.1-fold).

B16 and B17 are within 1.5-fold of each other in “hCRHR1-Luc 0.5 nM CRH IC50” value: 230 pM for the first, 250 pM for the second.

First: B18
Second: B19
The “hCRHR1-Luc 0.5 nM CRH IC50” value of the first is 2.4-fold lower: 192 pM for the first, 467 pM for the second.

Going from B20 to B21, the “hCRHR1-Luc 0.5 nM CRH IC50” value falls from 234 pM to 110 pM (2.1-fold).
